Results reported in US8361965B2, “Recombinant chimeric protein of neutrophil inhibitory factor and hirugen, and pharmaceutical composition thereof” (Lunan Pharmaceutical Group Corporation, priority 2008, dated 2013).

What was measured:
thrombin [1] = target: T1, thrombin (Homo sapiens, UniProt P00734); assay: in vitro test for reversible reaction of TNHH and thrombin (Hirudin ELISA); assay type: biochemical; set-up: Human thrombin (127 Unit/ampoule), Lot No.: 20021105; purchased National Institute for The Control of Pharmaceutical and Biological Products Lot No.: 20021105
Procedure: Adding 1.27 ml water into one ampoule of human thrombin, and mixing to obtain 100 Unit/ml solution; diluting the mother liquid of TNHH with water to 1.0 mg/ml, taking 0.5 ml thus obtained solution and adding 0.1 ml thrombin solution ([…] of thrombin), reacting at 37 for 2 hr, centrifuging and collecting the supernatant, diluting for 10 times with the dilution solution (taught by the instruction of IMUBIND® Hirudin ELISA Kit), repeating the dilution for 6 times at a four fold gradient, detecting according to the instruction of IMUBIND® Hirudin ELISA Kit, and determining the absorbance at 450 nm wavelength.

blood coagulation system [2] = assay: effects on blood coagulation system of New Zealand rabbits in vitro (APTT, PT, TT); assay type: biochemical, New Zealand rabbit; set-up: PT: unit not given beside the values; APTT / TT: unit not given here
Procedure: Medicaments were diluted to the following concentrations for use: TNHH: 3.0 mg/ml; 1.0 mg/ml; 333 μg/ml; bivalrudin: 600 μg/ml; 200 μg/ml; 67 μg/ml; Hirudin: 660 μg/ml; 220 μg/ml; 73 μg/ml.
The blood was sampled from six New Zealand rabbits (10×1.8 ml for each one) from marginal ear vein and added into 10 anticoagulation tubes, respectively. 3.2% sodium citrate (9:1) was added for anticoagulation.
20 μl anticoagulated blood was taken from each tube, followed by the addition of 20 μl above diluted medicaments for each tube. 20 μl physiological saline was added into the control tube. Samples were mixed thoroughly and centrifuged at 3000 rpm/min for 3 min, and plasma was send to Department of Clinical Laboratory, Southwest Hospital for determining blood coagulation indexes (APTT, TT and PT) with a full automatic coagulation analyzer and the difference before and after administration was obtained by comparison.

blood coagulation system [3] = assay: effects on blood coagulation system of New Zealand rabbits in vivo (APTT, PT, TT); set-up: species or system New Zealand rabbit; PT: unit not given beside the values; APTT / TT: unit not given here
Procedure: Medicaments were administrated via intravenous injection from marginal ear vein, and 1.8 ml blood was harvested from marginal ear veins at the time of before administration (0 min), and 10 min, 30 min, 60 min, 120 min and 240 min after administration, respectively (the time for injecting is 2 min). 3.2% sodium citrate (9:1) was added for anticoagulation and then mixed and centrifuged at 3000 rpm/min for 3 min. The plasma was send to Department of Clinical Laboratory, Southwest Hospital for determining blood coagulation indexes (APTT, TT and PT) with a full automatic coagulation analyzer and the difference before and after administration was obtained by comparison.

thrombin [4] = target: T1, thrombin; assay: in vitro binding of TNHH to thrombin (SEC-HPLC); set-up: Human thrombin (127 Unit/ampoule), Lot No.: 20021105; purchased National Institute for The Control of Pharmaceutical and Biological Products Lot No.: 20021105; conditions: 37° C. 1 h
Procedure: Weigh TNHH, dilute to 1.0 mg/ml with phosphate buffer solution, and is ready for use; Weight fibrin precisely, dissolve and dilute to 0.1 mg/ml with phosphate buffer solution, and is ready for use; Weigh thrombin, dissolve and dilute to 100 units/ml with phosphate buffer solution, which is ready for use.
Following the below procedures, test materials were reacted at 37° C. for 1 h, and then analyzed under the following chromatographic conditions.
(1) pipette test material solutions (20 μl for each), loading for analysis, and recording each retention time.
(2) pipette fibrin and thrombin solutions (0.5 ml for each), mixing and reacting at 37° C. for 1 h, and loading 20 μl sample for analysis.
(3) pipette TNHH and fibrin solutions (0.5 ml for each), mixing and reacting at 37° C. for 1 h, and loading 20 μl sample for analysis.
(4) pipette TNHH and thrombin solutions (0.5 ml for each), mixing and reacting at 37° C. for 1 h, and loading 20 μl sample for analysis.
(5) pipette TNHH and mixture of fibrin and thrombin solutions (0.5 ml for each), mixing and reacting at 37° C. for 1 h, and loading 20 μl sample for analysis.
Flow rate 0.5 ml/min; detection wavelength: 214 nm, Column temperature: room temperature; chromatogram recording time: 25 min.

[5] = TNHH 3.33 μg/ml in rabbit blood
[6] = TNHH 10.00 μg/ml in rabbit blood
[7] = TNHH 30.00 μg/ml in rabbit blood
[8] = TNHH 3.375 mg/kg i.v., 0 min (before administration)
[9] = TNHH 6.675 mg/kg i.v., 0 min (before administration)
[10] = dose in great excess of the effective dose

B1: TNHH: recombinant chimeric protein of neutrophil inhibitory factor and hirugen, Met-NIF-GGGGG-FPRPGSGG-Hirugen (SEQ ID NO: 3), expressed in E. coli (protein)
chain: MNEHNLRCPQNGTEMPGFNDSIRLQFLAMHNGYRSKLALGHISITEESESDDDDDFGFLPDFAPRASKMRYLEYDCEAEKSAYMSARNCSDSSSPPEGYDENKYIFENSNNISEAALKAMISWAKEAFNLNKTKEGEGVLYRSNHDISNFANLAWDAREKFGCAVVNCPLGEIDDETNHDGETYATTIHVVCHYPKINKTEGQPIYKVGTPCDDCSEYTKKADNTTSADPVCIPDDGVCFIGSKADYDSKEFYRFRELGGGGGFPRPGSGGNGDFEEIPEEYL
modifications: N-terminal Met
In the case of B1, the “in vitro interaction with thrombin (reversibility)” value (thrombin [1]; 37, 2 hr, Hirudin ELISA of supernatant) is reported as “irreversible”, the hydrolysis by thrombin (thrombin [1]; structure FPRP-GSGG-hirugen within TNHH) is reported as “could not be hydrolyzed by thrombin” and the APTT (blood coagulation system [2]; [5]) is reported as 33.73 ± 6.35. For the same molecule, the PT (blood coagulation system [2]; [5]) was 7.08 ± 0.28, the TT (blood coagulation system [2]; [5]) was 17.13 ± 1.46 and the APTT (blood coagulation system [2]; [6]) was 31.87 ± 4.46. The PT (blood coagulation system [2]; [6]) was 7.15 ± 0.24, the TT (blood coagulation system [2]; [6]) was 20.43 ± 1.59 and the APTT (blood coagulation system [2]; [7]) was 38.08 ± 5.53. It also gave a PT (blood coagulation system [2]; [7]) of 7.27 ± 0.38, a TT (blood coagulation system [2]; [7]) of 30.00 ± 4.81 and an APTT (blood coagulation system [3]; [8]) of 36.45 ± 6.60. For the same molecule, the PT (blood coagulation system [3]; [8]) was 6.78 ± 0.28, the TT (blood coagulation system [3]; [8]) was 15.57 ± 1.09 and the APTT (blood coagulation system [3]; TNHH 3.375 mg/kg i.v., 10 min) was 37.38 ± 6.35. For the same molecule, the PT (blood coagulation system [3]; TNHH 3.375 mg/kg i.v., 10 min) was 6.90 ± 0.21, the TT (blood coagulation system [3]; TNHH 3.375 mg/kg i.v., 10 min) was 23.23 ± 2.47 and the APTT (blood coagulation system [3]; TNHH 3.375 mg/kg i.v., 30 min) was 31.97 ± 2.11. For the same molecule, the PT (blood coagulation system [3]; TNHH 3.375 mg/kg i.v., 30 min) was 6.85 ± 0.23, the TT (blood coagulation system [3]; TNHH 3.375 mg/kg i.v., 30 min) was 16.13 ± 1.31 and the APTT (blood coagulation system [3]; TNHH 3.375 mg/kg i.v., 60 min) was 31.93 ± 2.39. It also gave a PT (blood coagulation system [3]; TNHH 3.375 mg/kg i.v., 60 min) of 6.78 ± 0.22, a TT (blood coagulation system [3]; TNHH 3.375 mg/kg i.v., 60 min) of 14.75 ± 1.44 and an APTT (blood coagulation system [3]; TNHH 3.375 mg/kg i.v., 120 min) of 30.52 ± 6.86. The PT (blood coagulation system [3]; TNHH 3.375 mg/kg i.v., 120 min) was 6.87 ± 0.32, the TT (blood coagulation system [3]; TNHH 3.375 mg/kg i.v., 120 min) was 14.02 ± 0.79 and the APTT (blood coagulation system [3]; TNHH 3.375 mg/kg i.v., 240 min) was 35.65 ± 9.36. The PT (blood coagulation system [3]; TNHH 3.375 mg/kg i.v., 240 min) was 7.02 ± 0.24, the TT (blood coagulation system [3]; TNHH 3.375 mg/kg i.v., 240 min) was 14.65 ± 1.14 and the APTT (blood coagulation system [3]; [9]) was 44.25 ± 5.39. The PT (blood coagulation system [3]; [9]) was 6.88 ± 0.17, the TT (blood coagulation system [3]; [9]) was 15.97 ± 1.42 and the APTT (blood coagulation system [3]; TNHH 6.675 mg/kg i.v., 10 min) was 39.87 ± 4.98. It also gave a PT (blood coagulation system [3]; TNHH 6.675 mg/kg i.v., 10 min) of 7.17 ± 0.36, a TT (blood coagulation system [3]; TNHH 6.675 mg/kg i.v., 10 min) of 33.57 ± 4.47 and an APTT (blood coagulation system [3]; TNHH 6.675 mg/kg i.v., 30 min) of 37.98 ± 4.77. The PT (blood coagulation system [3]; TNHH 6.675 mg/kg i.v., 30 min) was 7.12 ± 0.47, the TT (blood coagulation system [3]; TNHH 6.675 mg/kg i.v., 30 min) was 21.63 ± 1.71 and the APTT (blood coagulation system [3]; TNHH 6.675 mg/kg i.v., 60 min) was 36.17 ± 6.76. The PT (blood coagulation system [3]; TNHH 6.675 mg/kg i.v., 60 min) was 7.17 ± 0.40, the TT (blood coagulation system [3]; TNHH 6.675 mg/kg i.v., 60 min) was 15.55 ± 0.95 and the APTT (blood coagulation system [3]; TNHH 6.675 mg/kg i.v., 120 min) was 38.95 ± 8.85. The PT (blood coagulation system [3]; TNHH 6.675 mg/kg i.v., 120 min) was 7.62 ± 0.64, the TT (blood coagulation system [3]; TNHH 6.675 mg/kg i.v., 120 min) was 15.00 ± 1.51 and the APTT (blood coagulation system [3]; TNHH 6.675 mg/kg i.v., 240 min) was 38.03 ± 9.11. For the same molecule, the PT (blood coagulation system [3]; TNHH 6.675 mg/kg i.v., 240 min) was 7.97 ± 0.99, the TT (blood coagulation system [3]; TNHH 6.675 mg/kg i.v., 240 min) was 13.33 ± 0.73 and the “extension time of PT” value (blood coagulation system [3]; TNHH 6.675 mg/kg i.v., vs 0 min) was “less than 3 seconds”. For the same molecule, the “effects on the endogenous blood coagulation pathway” value (blood coagulation system [3]; [10]) was “no effects”, the “effects on the exogenous blood coagulation pathway and fibrinolytic system” value (blood coagulation system [3]; [10]) was “some effects” and the binding with thrombin (thrombin [4]) was “could bind with fibrin and thrombin”.
